# Results taken from the nanobody polyreactivity screen of Harvey et al. (2022).
# Assay: yeast display, Sf9 membrane polyspecificity reagent, FACS + sequencing; frameworks hold sequencing errors
# Procedure, shortened: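 Genes from sorted yeast were amplified by colony PCR, read by MiSeq 2 × 250 sequencing and filtered on CDR length. These cells carried a synthetic nanobody library in Saccharomyces cerevisiae BJ5465 and were sorted by FACS into low and high (top ~1%) gates on anti-HA and streptavidin fluorescence. Polyreactivity is labelled according to the gate of origin.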
row,Sequence,polyreactivity (PSR sort gate)
1,QVQLVESGGGLVQAGGSLRLSCAASGSTFGRNAMGWYRQAPGKERELVAAISWSASRTYYADSVKGRFTISRDNAKNTVYLQMNSLIPDDTAVYYCAAEYDVGYFGYEYWGQGTQVTVSS,high polyreactivity
2,QVQLVESGGGLVQAGGSLRLSCAASGSTFGRNAMGWYRQAPGKERELVAAITASGGTTYYADSVKGRFTISRDNAKNTVYLQMNSLKPEDTAVYYCARAGHFSFKDDYWGQGTQVTVSS,low polyreactivity
3,QVQLVESGGGLVQAGGSLRLSCAASGSTFGRNAMGWYRQAPGKERELVAAITASGGTTYYADSVKGRFTISRDNAKNTVYLQMNSLKPEETAVYYCARAGHFSFKYDYWGQGTQVTVSS,low polyreactivity
4,QVQLVESGGGLVQAGGSLRLSCAASGSTFGRNTMGWYRKAPGKERELVASITRSSTSTNYADSVKGRFTISRDNAKNTVYLQMNSLKPEDTAVYYCAARALRTDRSPVGSHEYWGQGTQVTVSS,low polyreactivity
5,QVQLVESGGGLVQAGGSLRLSCAASGSTFGRNTMGWYRPAPGKERELVAAITAGDTTTYADSVKGRFTISRDNAKNTDYLQMKSLKREDTAVYYCAVDPVRGRDYSWMDYWGQGSQVTVSS,low polyreactivity
6,QVQLVESGGGLVQAGGSLRLSCAASGSTFGRNVMGWYRQAPGKERELVAAISIRGGSTYYADSVKGRFTISRDNAKNTVYLQMNSLKPEDTAVYYCARDYPTDAYDYWGQGTQVTVSS,low polyreactivity
7,QVQLVESGGGLVQAGGSLRLSCAASGSTFGRYAMGWYRQAPGKERELVAAITRSGGRTYYADSLKGRFTISRDNAKNTVYLQMNSLKPEDTAVYYCAAVGNLYYTSHWQYDYWGQGTQVTVSS,high polyreactivity
8,QVQLVESGGGLVQAGGSLRLSCAASGSTFGRYTMGWYRQAPGKEREFVAAIRWSGGNTYYADSVKGRFTISRDNAKNTVYLQMNSLKPEDTAVYYCNRVYSTIGDYWGQGTQVTVSS,low polyreactivity
9,QVQLVESGGGLVQAGGSLRLSCAASGSTFGRYVMGWYRQAPGKERELVAAISYSGGRTYYADSVKGRFTISRDNAKNTVYLQMNSLKPEDTAVYYCAARVRTVRNTYYSWGQGTQVTVSS,high polyreactivity
10,QVQLVESGGGLVQAGGSLRLSCAASGSTFGSNAMGWYRQAPGKERELVAAISSIGGSTYYADSVKGRFTISRDNAKNTVYLQMNSLKTEDTAVYYCAAKYYGRYYRYLGSSFDYWGQGTQVTVSS,high polyreactivity
11,QVQLVESGGGLVQAGGSLRLSCAASGSTFGSNAMGWYRQAPGKERELVAAITYSGGRTYYADSVKGRFTISRDNAKNTVYLQMNSLKPEDTAVYYCAATFGFFYYQYDYWGQGTQVTVSS,low polyreactivity
12,QVQLVESGGGLVQAGGSLRLSCAASGSTFGSNDLGWYRQAPGQERELVAAITWSGGSTFYADSVKGRFTISRDNAKNTVYLQMNSLKPEDTALYSCAVSTEVNRYHAKYDYRGQGTQVTVSS,low polyreactivity
13,QVQLVESGGGLVQAGGSLRLSCAASGSTFGSYAMGWYRQAPGKERELVAAISRSGTSTYYADSVKGRFTISRDNAKNTVYLQMNSLKPEETAVYYCAAKFVTSGGLEGYWGQGTQVTVSS,high polyreactivity
14,QVQLVESGGGLVQAGGSLRLSCAASGSTFGSYAMGWYRQAPGKERELVADISSRGASTYYADSVKGRFTISRDNAKNTVYLQMNSLKPEDTAVYYCARDVYIWYGYGYFPEYEYWGQGTQVTVSS,low polyreactivity
15,QVQLVESGGGLVQAGGSLRLSCAASGSTFGSYTMGWYRQAPGKERELVAAISYSSGRTYYADSVKGRFTISRDNAKNTVYLQMNSLKPEDTAVYYCAAVSRGRGEYDYWGQGTQLTVSS,high polyreactivity
16,QVQLVESGGGLVQAGGSLRLSCAASGSTFGTNAMGWYRQAPGKERELVAAISTGGSTYYADSVKGRFTISRDNAKNTVYLQMNSLKPEDNAVYYCAALADYVRRASDYWGQGTQVTVSS,low polyreactivity
17,QVQLVESGGGLVQAGGSLRLSCAASGSTFGTYAMGWNRQATWKERELVAAITYSTGNTYYADSVKGRFTISRDNAKNNVYLQMNSLKPEDTAVYYCALEFGYYYFWMDYWGQGTQVTVSS,high polyreactivity
18,QVQLVESGGGLVQAGGSLRLSCAASGSTFGTYAMGWYRKAPGKERELVAAISTGGSTYYADSVKGRFTISRDNAKNTVYLQMNSLKPEDTAVYYCAALADYVRRASEYWGQGTQVTVSS,high polyreactivity
19,QVQLVESGGGLVQAGGSLRLSCAASGSTFGTYAMGWYRQATGKERELVAAISRGVSTYYADSVKGRFTISRDKAKNTVYLEMNSLKPEDTAVYYCAADPFWQTVYVYYTYSGTSYYWGQGTQVTVSS,low polyreactivity
20,QVQLVESGGGLVQAGGSLRLSCAASGSTFGVNAMGWYRPAPGKERELVAAITYSGGSTYYADSVKGRFTISRDNAKNTVYLQMNSLKPEDTAVYYCATTWYFVASWYVAIYDYWGQGTQVTVSS,low polyreactivity
21,QVQLVESGGGLVQAGGSLRLSCAASGSTFGVNAMGWYRQAPGKERELVAAIRWSDGSTYYADSVKGRFTISRDNAKNTVYLQMNSLKPEDTAVYYCNTDLTVYFPVEYWGQGTQVTVSS,low polyreactivity
22,QVQLVESGGGLVQAGGSLRLSCAASGSTFGVNAMGWYRQAPGKERELVAAISSSGSSTYADSVKGRFTISRDYAKNTVYLQMNSLKPEYTGVYYCNKTTLLTVEYDYWGQGPQVTVSS,low polyreactivity

row,Sequence,polyreactivity (PSR sort gate)
1,QVQLVESGGGLVQAGGSLRLSCAASGSTFGVNAMGWYRQAPGKERELVATISRGTSTNYADSVKGRFTISRDNAKNTVYLQMHSLKPEDTAVYYCAKRVFYPGAYRYYYWGQGTQVTVSS,high polyreactivity
2,QVQLVESGGGLVQAGGSLRLSCAASGSTFGVNVMGWYRQAPGKERELVDAISRSGGRTYYADSVKGRFTISRDNAKNTVYLQMNSLKPEDTAVYYCNTRGYDYWGQGTQVTVSS,high polyreactivity
3,QVQLVESGGGLVQAGGSLRLSCAASGSTFGVYAMGWYRQAPGKERELVAAISESGGNTYYADSVKGRFTISRDNAKNTVYLQLNSLKPEDPAVYYCNTDVVVVHYIQAYYWGQGTQVTVSS,low polyreactivity
4,QVQLVESGGGLVQAGGSLRLSCAASGSTFGVYAMGWYRQAPGKERELVAAISKRGGSTYYADSVKGRFTISRDNAKNTVYLQMNSLKPEDTAVYYCAAGARGLYDYWGQGTQVTVSS,high polyreactivity
5,QVQLVESGGGLVQAGGSLRLSCAASGSTFGVYAMGWYRQAPGKERELVAAISSSTGSTYYADSVKGRFTISRDNAMNSVYLQMNSLKPEDTAVYYCDAAGYGKVLGDYWGQGTLVTVSS,low polyreactivity
6,QVQLVESGGGLVQAGGSLRLSCAASGSTFGVYAMGWYRQAPGKERELVASISSRGRTKYADSVKGSFTISRDNAKNTVYLQMIRLKPEDTAFYYCAARIRYLGVRDNDNYYWGQGTQVTVSS,low polyreactivity
7,QVQLVESGGGLVQAGGSLRLSCAASGSTFGWNAMGWYRQAPGKERELVAAISSSGGITYYADSVKGRFTISRDNAKNTVYLQMNSLKPEDSAVYYCAAERDDDWVNYWGQGTQVTVSS,low polyreactivity
8,QVQLVESGGGLVQAGGSLRLSCAASGSTFGWYAIGWNRQAPGKERELVAAINSDGSTYYADSVKGRFTISRDNAKNNVYLQMNSLKPEDPAVYYCATDDALYGYLYHNYGYWGEGTQVTVSS,low polyreactivity
9,QVQLVESGGGLVQAGGSLRLSCAASGSTFGWYAMGGYRQAPGKERELVAAISASGGATYYADSVKGRFTISRDNAKNTVYLQMNSLKPEDTAVYYCAAVRYPNWYDYWGQGTQVTVSS,high polyreactivity
10,QVQLVESGGGLVQAGGSLRLSCAASGSTFGWYAMGWYRQAPGKEREFVAAIRGGGSSTYYADSVKGRFTISRDNAKNTVYFQMNSLKPEDTAVYYCAAVTSQLYGNRYYYWGQGTQVTVSS,high polyreactivity
11,QVQLVESGGGLVQAGGSLRLSCAASGSTFGWYAMGWYRQAPGKERELVAAISNSGGSTYYADSVKGRFTISRDNAKNTVYLQMNSLKPEDTAVYYCATYHTTSYYQLVFDYWGQGTQVTVSS,low polyreactivity
12,QVQLVESGGGLVQAGGSLRLSCAASGSTFGWYAMGWYRQAPGKERELVASISSGGSTNYADSVKGRFTISRDNAKNTVYLQMNSLKPEDTAVYYCAARGGYWWYRYGYWGQGTQVTVSS,high polyreactivity
13,QVQLVESGGGLVQAGGSLRLSCAASGSTFGWYTMGWYRQAPGKERELVAAMTSRGTRTSYADSVKGRFTISRDNAKNTVYLQMNSLKPEDTAVYYCAARVFRGLGEYYWGQGTQVTVSS,high polyreactivity
14,QVQLVESGGGLVQAGGSLRLSCAASGSTFGYNAMGWYRQAPGKERELVAAINFRSDRTFYADSVKGRFTISRDNAKNTVYLQMNSLKPEDTAVYYCAAKPTTYYGNSDYWGQGTQVTVSS,high polyreactivity
15,QVQLVESGGGLVQAGGSLRLSCAASGSTFGYNAMGWYRQAPGKERELVAAISYSGGSTSYADSVKGRFTISRDNAKNIVYLQMNSLKPEDTAVYYCARDSYSQYSSQALEGYGYWGQGTQVTVSS,low polyreactivity
16,QVQLVESGGGLVQAGGSLRLSCAASGSTFGYNAMGWYRQAPGKERELVADITARGGSTYYADSVKGRFTISRANAKNTVYLQMNSLKPEVTAVYYCAARRKRFYYYAGYDYWGQGTQVTVSS,high polyreactivity
17,QVQLVESGGGLVQAGGSLRLSCAASGSTFGYNAMGWYRQAPGKERELVARITSSGGSTYYADSVKGRFTISRDNAKNTVYLQMNSLKPEDTAVYYCAAGYLSGNYARYGYWGQGTQVTVSS,high polyreactivity
18,QVQLVESGGGLVQAGGSLRLSCAASGSTFGYNAMGWYRQAPGKERELVATITSTGGGTYYADSVKGRFTISRDNAKNTVYLQMNSLKPEDTAVYYCAAVYYSLDYVHGYPPHYDYWGQGTQVTVSS,low polyreactivity
19,QVQLVESGGGLVQAGGSLRLSCAASGSTFGYNAMGWYRQATGKERELVARITSSGGSTYYADSVKGRFTISRDNAKNTVYLQMNILKPEDTAVYYCAAGYLSGNYARYGYWGQGTQVTVSS,high polyreactivity
20,QVQLVESGGGLVQAGGSLRLSCAASGSTFGYNAMGWYRQSPGKERELVAAISYSGGSTYYADSVKGRFTISRDNAKNTVYLLMNSLKPEDTAVYYCAKETNRVGRYHWGQGTQVNVSS,low polyreactivity
21,QVQLVESGGGLVQAGGSLRLSCAASGSTFGYNTMGWYRQAPGKERELVAAITSGGRTYYADSVKGRFTISRDNAKNTVYLQMNILKPEDTAVYYCAAYYWWGYPENDYWGQGTQVTVSS,high polyreactivity
